Assay results taken from article doi:10.1101/2021.02.19.432017 (bioRxiv, 2021).
Blank lines part the entries; values can stand above or below the binder they belong to.

B1: Ras suppressor-1 (Rsu-1), wild type (natural protein)
chain: MSKSLKKLVEESREKNQPEVDMSDRGISNMLDVNGLFTLSHITQLVLSHNKLTMVPPNIAELKNLEVLNFFNNQIEELPTQISSLQKLKHLNLGMNRLNTLPRGFGSLPALEVLDLTYNNLSENSLPGNFFYLTTLRALYLSDNDFEILPPDIGKLTKLQILSLRDNDLISLPKEIGELTQLKELHIQGNRLTVLPPELGNLDLTGQKQVFKAENNPWVTPIADQFQLGVSHVFEYIRSETYKYLYGRHMQANPEPPKKNNDKSKKISRKPLAAKNR

Assays:
Test in all cases: SEC
[1] = molecular target: PINCH-1 (residues 1-325), subunit of the IPP complex (human, UniProt P48059 1-325)
PINCH-1 (residues 1-325), subunit of the IPP complex, sequence (P48059 whole entry, the tested form may be a part, one chain of several): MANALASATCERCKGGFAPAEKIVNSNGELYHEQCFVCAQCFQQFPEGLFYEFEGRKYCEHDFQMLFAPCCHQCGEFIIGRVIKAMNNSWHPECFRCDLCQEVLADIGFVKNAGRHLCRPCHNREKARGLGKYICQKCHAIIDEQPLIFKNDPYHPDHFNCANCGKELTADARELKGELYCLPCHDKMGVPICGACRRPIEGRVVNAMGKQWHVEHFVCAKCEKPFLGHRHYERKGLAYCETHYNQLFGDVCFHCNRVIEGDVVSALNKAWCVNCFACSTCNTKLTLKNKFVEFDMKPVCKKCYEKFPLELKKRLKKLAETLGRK

[2] = molecular target: B1
Kindlin-2 = molecular target: T1, Kindlin-2 (human, UniProt Q96AC1 1-680)
T1 sequence: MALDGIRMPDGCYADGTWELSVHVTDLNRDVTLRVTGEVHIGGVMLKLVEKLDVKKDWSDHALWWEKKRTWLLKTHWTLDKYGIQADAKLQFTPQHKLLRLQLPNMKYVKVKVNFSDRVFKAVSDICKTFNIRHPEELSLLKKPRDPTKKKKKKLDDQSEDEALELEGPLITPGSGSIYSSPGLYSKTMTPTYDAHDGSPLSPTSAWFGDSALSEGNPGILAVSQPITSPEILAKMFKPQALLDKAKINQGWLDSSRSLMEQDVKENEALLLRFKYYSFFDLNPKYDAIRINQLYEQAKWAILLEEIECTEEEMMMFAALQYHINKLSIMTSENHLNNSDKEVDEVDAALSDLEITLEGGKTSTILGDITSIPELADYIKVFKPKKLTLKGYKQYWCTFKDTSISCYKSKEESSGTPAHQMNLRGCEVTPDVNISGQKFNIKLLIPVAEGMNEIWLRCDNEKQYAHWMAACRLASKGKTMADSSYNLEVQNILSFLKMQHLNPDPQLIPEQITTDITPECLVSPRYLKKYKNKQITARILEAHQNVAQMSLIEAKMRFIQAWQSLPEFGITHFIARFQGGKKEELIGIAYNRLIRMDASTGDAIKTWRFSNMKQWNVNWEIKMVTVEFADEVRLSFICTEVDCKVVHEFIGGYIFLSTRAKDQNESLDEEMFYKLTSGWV

Binder: B1
binding result [1]: binds

binding result [2]: binds
B2: PINCH-2 LIM5S (size exclusion) (domain or fragment)
chain: GDVCYNCSHVIEGDVVSALNKAWCVSCFSCSTCNSKLTLKNKFVEFDMKPVCKRCYEKFPLELKKRLKKLSELTSRK

binding result (Kindlin-2): binds
B3: Integrin linked kinase (ILK), subunit of the IPP complex (natural protein)
chain: MDDIFTQCREGNAVAVRLWLDNTENDLNQGDDHGFSPLHWACREGRSAVVEMLIMRGARINVMNRGDDTPLHLAASHGHRDIVQKLLQYKADINAVNEHGNVPLHYACFWGQDQVAEDLVANGALVSICNKYGEMPVDKAKAPLRELLRERAEKMGQNLNRIPYKDTFWKGTTRTRPRNGTLNKHSGIDFKQLNFLTKLNENHSGELWKGRWQGNDIVVKVLKVRDWSTRKSRDFNEECPRLRIFSHPNVLPVLGACQSPPAPHPTLITHWMPYGSLYNVLHEGTNFVVDQSQAVKFALDMARGMAFLHTLEPLIPRHALNSRSVMIDEDMTARISMADVKFSFQCPGRMYAPAWVAPEALQKKPEDTNRRSADMWSFAVLLWELVTREVPFADLSNMEIGMKVALEGLRPTIPPGISPHVCKLMKICMNEDPAKRPKFDMIVPILEKMQDK
